{
  "source": "paper PMC4057017",
  "biological_target": "BG505 EnvΔCT trimer (cleaved, membrane-derived) (HIV-1 isolate BG505 (clade A))",
  "assay": "single particle EM reconstruction",
  "data": [
    {"substance": "PGT151 Fab", "values": [
      {"measurement": "stoichiometry N (Fabs per trimer)", "result": 2}
    ]}
  ]
}
